Source: PMC2756588

T1: Abp1, P15891
T1 sequence (P15891 535-592, looked up): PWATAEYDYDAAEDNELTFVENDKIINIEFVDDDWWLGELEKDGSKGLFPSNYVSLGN

T2: Bbc1, P47068
T2 sequence (P47068 1-78, looked up): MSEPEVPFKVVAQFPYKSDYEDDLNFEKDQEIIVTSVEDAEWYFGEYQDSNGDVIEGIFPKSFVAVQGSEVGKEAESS

T3: Boi1, P38041
T3 sequence (P38041 1-86, looked up): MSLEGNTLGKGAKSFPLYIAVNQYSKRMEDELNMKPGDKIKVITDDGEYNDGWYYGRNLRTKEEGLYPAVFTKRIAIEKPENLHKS

T4: Boi2, P39969
T4 sequence (P39969 32-116, looked up): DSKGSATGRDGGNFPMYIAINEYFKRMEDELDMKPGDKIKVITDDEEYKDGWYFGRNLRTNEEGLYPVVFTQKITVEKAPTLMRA

T5: Bud14, P27637
T5 sequence (P27637 247-328, looked up): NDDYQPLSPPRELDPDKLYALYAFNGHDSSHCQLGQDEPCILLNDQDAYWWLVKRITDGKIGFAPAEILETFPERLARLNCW

T6: Bzz1-1, P38822
T6 sequence (P38822 478-572, looked up): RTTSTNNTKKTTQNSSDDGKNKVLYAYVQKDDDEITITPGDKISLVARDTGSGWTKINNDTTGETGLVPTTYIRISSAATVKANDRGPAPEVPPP

T7: Bzz1-2, P38822
T7 sequence (P38822 568-633, looked up): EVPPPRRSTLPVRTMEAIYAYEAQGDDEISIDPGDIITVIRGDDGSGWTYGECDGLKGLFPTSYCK

T8: Cdc25, P04821
T8 sequence (P04821 50-136, looked up): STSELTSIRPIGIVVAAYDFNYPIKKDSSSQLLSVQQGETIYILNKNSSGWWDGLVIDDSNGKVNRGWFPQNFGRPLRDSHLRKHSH

T9: Cyk3, Q07533
T9 sequence (Q07533 1-83, looked up): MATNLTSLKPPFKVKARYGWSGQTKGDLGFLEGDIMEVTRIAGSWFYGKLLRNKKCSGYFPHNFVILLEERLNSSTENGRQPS

T10: Fus1, P11710
T10 sequence (P11710 432-512, looked up): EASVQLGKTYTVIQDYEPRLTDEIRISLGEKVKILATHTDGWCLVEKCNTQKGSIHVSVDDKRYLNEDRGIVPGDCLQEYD

T11: Hof1, Q05080
T11 sequence (Q05080 590-669, looked up): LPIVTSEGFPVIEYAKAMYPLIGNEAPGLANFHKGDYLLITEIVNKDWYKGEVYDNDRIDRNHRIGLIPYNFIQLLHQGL

T12: Hse1, P38753
T12 sequence (P38753 208-285, looked up): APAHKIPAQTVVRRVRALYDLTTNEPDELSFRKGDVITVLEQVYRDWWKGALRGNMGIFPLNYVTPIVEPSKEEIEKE

T13: Lsb1, P53281
T13 sequence (P53281 45-122, looked up): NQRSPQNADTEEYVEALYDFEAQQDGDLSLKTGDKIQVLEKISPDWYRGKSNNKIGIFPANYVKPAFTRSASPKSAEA

T14: Lsb3, P43603
T14 sequence (P43603 385-451, looked up): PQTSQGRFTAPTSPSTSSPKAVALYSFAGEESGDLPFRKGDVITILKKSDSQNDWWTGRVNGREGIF

T15: Lsb4, P32793
T15 sequence (P32793 402-468, looked up): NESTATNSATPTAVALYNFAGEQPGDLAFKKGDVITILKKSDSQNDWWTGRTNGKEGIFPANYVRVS

T16: Myo5, Q04439
T16 sequence (Q04439 1072-1160, looked up): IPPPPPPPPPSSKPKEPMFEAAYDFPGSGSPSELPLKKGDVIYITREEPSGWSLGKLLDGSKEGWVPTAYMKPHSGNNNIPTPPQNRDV

T17: Nbp2, Q12163
T17 sequence (Q12163 103-180, looked up): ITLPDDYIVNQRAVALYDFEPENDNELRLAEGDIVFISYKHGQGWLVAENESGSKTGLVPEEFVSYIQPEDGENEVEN

T18: Pex13, P80667
T18 sequence (P80667 295-386, looked up): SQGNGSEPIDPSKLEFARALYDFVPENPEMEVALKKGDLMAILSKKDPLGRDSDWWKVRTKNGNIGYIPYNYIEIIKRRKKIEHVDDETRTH

T19: Pin3, Q06449
T19 sequence (Q06449 53-122, looked up): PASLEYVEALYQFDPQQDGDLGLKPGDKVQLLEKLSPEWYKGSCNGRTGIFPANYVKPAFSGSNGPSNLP

T20: Sla1-2, P32790
T20 sequence (P32790 60-140, looked up): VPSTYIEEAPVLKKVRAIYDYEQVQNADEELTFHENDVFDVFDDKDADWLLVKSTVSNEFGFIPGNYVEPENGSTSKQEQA

T21: Sla1-3, P32790
T21 sequence (P32790 344-424, looked up): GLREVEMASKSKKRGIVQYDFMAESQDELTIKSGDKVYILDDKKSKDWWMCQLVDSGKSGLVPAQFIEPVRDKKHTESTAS


Key:
Test in all cases: SPOT array
Abp1, P15891 = biological target: T1, Abp1, P15891; details: median of control spots 935
Bbc1, P47068 = biological target: T2, Bbc1, P47068; details: median of control spots 796
Bem1-1, P29366 = details: median of control spots 4282
Bem1-2, P29366 = details: median of control spots 4347
Boi1, P38041 = biological target: T3, Boi1, P38041; details: median of control spots 1162
Boi2, P39969 = biological target: T4, Boi2, P39969; details: median of control spots 1161
Bud14, P27637 = biological target: T5, Bud14, P27637; details: median of control spots 956
Bzz1-1, P38822 = biological target: T6, Bzz1-1, P38822; details: median of control spots 4446
Bzz1-2, P38822 = biological target: T7, Bzz1-2, P38822; details: median of control spots 4538
Cdc25, P04821 = biological target: T8, Cdc25, P04821; details: median of control spots 969
Cyk3, Q07533 = biological target: T9, Cyk3, Q07533; details: median of control spots 1451
Fus1, P11710 = biological target: T10, Fus1, P11710; details: median of control spots 1200
GST = details: median of control spots 978
Hof1, Q05080 = biological target: T11, Hof1, Q05080; details: median of control spots 4086
Hse1, P38753 = biological target: T12, Hse1, P38753; details: median of control spots 1727
Lsb1, P53281 = biological target: T13, Lsb1, P53281; details: median of control spots 388
Lsb3, P43603 = biological target: T14, Lsb3, P43603; details: median of control spots 406
Lsb4, P32793 = biological target: T15, Lsb4, P32793; details: median of control spots 397
Myo3, P36006 = details: median of control spots 468
Myo5, Q04439 = biological target: T16, Myo5, Q04439; details: median of control spots 471
Nbp2, Q12163 = biological target: T17, Nbp2, Q12163; details: median of control spots 357
Pex13, P80667 = biological target: T18, Pex13, P80667; details: median of control spots 1341
Pin3, Q06449 = biological target: T19, Pin3, Q06449; details: median of control spots 2171
Rvs167, P39743 = details: median of control spots 2707
Sho1, P40073 = details: median of control spots 1148
Sla1-2, P32790 = biological target: T20, Sla1-2, P32790; details: median of control spots 712
Sla1-3, P32790 = biological target: T21, Sla1-3, P32790; details: median of control spots 5475

Chain of Bem1-2, P29366 (P29366 139-227): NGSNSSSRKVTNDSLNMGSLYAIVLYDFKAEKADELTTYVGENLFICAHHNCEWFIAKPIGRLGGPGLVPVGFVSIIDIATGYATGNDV
Chain of Sho1, P40073 (P40073 287-367): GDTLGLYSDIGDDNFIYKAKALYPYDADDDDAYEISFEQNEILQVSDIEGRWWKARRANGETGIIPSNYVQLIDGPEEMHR
Chain of Bem1-1, P29366 (P29366 55-141): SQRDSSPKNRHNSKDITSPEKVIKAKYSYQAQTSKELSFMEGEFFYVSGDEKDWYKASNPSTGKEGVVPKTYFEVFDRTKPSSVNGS
Chain of Rvs167, P39743 (P39743 419-482): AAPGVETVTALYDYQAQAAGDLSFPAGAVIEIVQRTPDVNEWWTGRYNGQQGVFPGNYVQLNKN

SPOT intensity (Abp1, P15891) | SPOT intensity (Bbc1, P47068) | SPOT intensity (Bem1-1, P29366) | SPOT intensity (Bem1-2, P29366) | SPOT intensity (Boi1, P38041) | SPOT intensity (Boi2, P39969) | SPOT intensity (Bud14, P27637) | SPOT intensity (Bzz1-1, P38822) | SPOT intensity (Bzz1-2, P38822) | SPOT intensity (Cdc25, P04821) | SPOT intensity (Cyk3, Q07533) | SPOT intensity (Fus1, P11710) | SPOT intensity (GST) | SPOT intensity (Hof1, Q05080) | SPOT intensity (Hse1, P38753) | SPOT intensity (Lsb1, P53281) | SPOT intensity (Lsb3, P43603) | SPOT intensity (Lsb4, P32793) | SPOT intensity (Myo3, P36006) | SPOT intensity (Myo5, Q04439) | Binder | further results
8 | 0 | 0 | 0 | 0 | 1 | 0 | 0 | 0 | 0 | 1 | 0 | 2 | 0 | 0 | 1 | 1 | 0 | 3 | 2 | PSRRDSLSIPRAVDA | SPOT intensity (Nbp2, Q12163): 0; SPOT intensity (Pex13, P80667): 1; SPOT intensity (Pin3, Q06449): 11; SPOT intensity (Rvs167, P39743): 0; SPOT intensity (Sho1, P40073): 13; SPOT intensity (Sla1-2, P32790): 0; SPOT intensity (Sla1-3, P32790): 0
22 | 2 | 0 | 4 | 0 | 0 | 1 | 0 | 7 | 3 | 0 | 1 | 0 | 25 | 101 | 1 | 0 | 4 | 0 | 0 | LSKRLPLRFPEHTSS | SPOT intensity (Nbp2, Q12163): 2; SPOT intensity (Pex13, P80667): 3; SPOT intensity (Pin3, Q06449): 0; SPOT intensity (Rvs167, P39743): 0; SPOT intensity (Sho1, P40073): 29; SPOT intensity (Sla1-2, P32790): 0; SPOT intensity (Sla1-3, P32790): 24
28 | 24 | 0 | 0 | 1 | 0 | 3 | 1 | 1 | 10 | 0 | 26 | 0 | 4 | 5 | 0 | 2 | 0 | 8 | 0 | RSRRSSFAYPQQVAI | SPOT intensity (Nbp2, Q12163): 0; SPOT intensity (Pex13, P80667): 4; SPOT intensity (Pin3, Q06449): 8; SPOT intensity (Rvs167, P39743): 2; SPOT intensity (Sho1, P40073): 64; SPOT intensity (Sla1-2, P32790): 1; SPOT intensity (Sla1-3, P32790): 29
48 | 1 | 0 | 0 | 1 | 1 | 1 | 0 | 5 | 1 | 0 | 17 | 1 | 0 | 0 | 2 | 6 | 9 | 4 | 2 | RKQRSIPLSPIVPES | SPOT intensity (Nbp2, Q12163): 0; SPOT intensity (Pex13, P80667): 2; SPOT intensity (Pin3, Q06449): 7; SPOT intensity (Rvs167, P39743): 0; SPOT intensity (Sho1, P40073): 49; SPOT intensity (Sla1-2, P32790): 0; SPOT intensity (Sla1-3, P32790): 17
4 | 13 | 0 | 0 | 0 | 0 | 0 | 0 | 2 | 0 | 0 | 0 | 1 | 1 | 1 | 5 | 0 | 0 | 0 | 0 | GKLKHIPRRPYEIER | SPOT intensity (Nbp2, Q12163): 0; SPOT intensity (Pex13, P80667): 2; SPOT intensity (Pin3, Q06449): 4; SPOT intensity (Rvs167, P39743): 1; SPOT intensity (Sho1, P40073): 9; SPOT intensity (Sla1-2, P32790): 0; SPOT intensity (Sla1-3, P32790): 16
121 | 190 | 0 | 1 | 1 | 1 | 24 | 0 | 6 | 27 | 1 | 6 | 2 | 0 | 1 | 30 | 4 | 8 | 14 | 2 | TKIRRRPQQPLTDFT | SPOT intensity (Nbp2, Q12163): 2; SPOT intensity (Pex13, P80667): 3; SPOT intensity (Pin3, Q06449): 11; SPOT intensity (Rvs167, P39743): 1; SPOT intensity (Sho1, P40073): 120; SPOT intensity (Sla1-2, P32790): 1; SPOT intensity (Sla1-3, P32790): 20
